How the values were obtained:
[1] = substrate: c1cc2c(cc1[C@H]1OC[C@H]3[C@@H]1CO[C@@H]3c1ccc3c(c1)OCO3)OCO2; assay: Activity of recombinant human CYP1A2 expressed in Saccharomyces cerevisiae AH22 cells assessed as enzyme-mediated sesamin monocatecholization after 15 mins by Michaelis-Menten plot analysis in presence of NADPH; type: ADME, cell-based
[2] = substrate: [H][C@]12CO[C@@H](c3ccc4c(c3)OCO4)[C@@]1([H])CO[C@@H]2c1ccc(O)c(O)c1; assay: (§1) Drug metabolism in human liver cytosol assessed as COMT-mediated methylation after 10 to 30 mins by HPLC analysis in presence of SAM; type: ADME
[3] = substrate: [H][C@]12CO[C@@H](c3ccc(O)c(O)c3)[C@@]1([H])CO[C@@H]2c1ccc2c(c1)OCO2; assay: as §1; type: ADME
[4] = substrate: [H][C@]12CO[C@H](c3ccc4c(c3)OCO4)[C@@]1([H])CO[C@@H]2c1ccc(O)c(O)c1; assay: as §1; type: ADME
[5] = substrate: [H][C@]12CO[C@@H](c3ccc4c(c3)OCO4)[C@@]1([H])CO[C@@H]2c1ccc(O)c(O)c1; assay: (§2) Drug metabolism in Sprague-Dawley rat liver cytosol assessed as COMT-mediated methylation after 10 to 30 mins by HPLC analysis in presence of SAM; type: ADME
[6] = substrate: [H][C@]12CO[C@@H](c3ccc(O)c(O)c3)[C@@]1([H])CO[C@@H]2c1ccc2c(c1)OCO2; assay: as §2; type: ADME
[7] = substrate: [H][C@]12CO[C@H](c3ccc4c(c3)OCO4)[C@@]1([H])CO[C@@H]2c1ccc(O)c(O)c1; assay: as §2; type: ADME
[8] = substrate: [H][C@]12CO[C@@H](c3ccc4c(c3)OCO4)[C@@]1([H])CO[C@@H]2c1ccc(O)c(O)c1; assay: (§3) Activity of recombinant human CYP2C19 expressed in Saccharomyces cerevisiae AH22 cells assessed as enzyme-mediated episesamin dicatechol formation after 15 mins by HPLC analysis in presence of NADPH; type: ADME, cell-based
[9] = substrate: [H][C@]12CO[C@@H](c3ccc(O)c(O)c3)[C@@]1([H])CO[C@@H]2c1ccc2c(c1)OCO2; assay: as §3; type: ADME, cell-based
[10] = substrate: [H][C@]12CO[C@H](c3ccc4c(c3)OCO4)[C@@]1([H])CO[C@@H]2c1ccc(O)c(O)c1; assay: Activity of recombinant human CYP2C19 expressed in Saccharomyces cerevisiae AH22 cells assessed as enzyme-mediated sesamin dicatechol formation after 15 mins by HPLC analysis in presence of NADPH; type: ADME, cell-based
[11] = substrate: c1cc2c(cc1[C@H]1OC[C@H]3[C@@H]1CO[C@@H]3c1ccc3c(c1)OCO3)OCO2; assay: Activity of recombinant human CYP2C9 expressed in Saccharomyces cerevisiae AH22 cells assessed as enzyme-mediated sesamin monocatecholization after 15 mins by Michaelis-Menten plot analysis in presence of NADPH; type: ADME, cell-based

B1: Cytochrome P450 1A2 (Homo sapiens) (protein)
chain: MALSQSVPFSATELLLASAIFCLVFWVLKGLRPRVPKGLKSPPEPWGWPLLGHVLTLGKNPHLALSRMSQRYGDVLQIRIGSTPVLVLSRLDTIRQALVRQGDDFKGRPDLYTSTLITDGQSLTFSTDSGPVWAARRRLAQNALNTFSIASDPASSSSCYLEEHVSKEAKALISRLQELMAGPGHFDPYNQVVVSVANVIGAMCFGQHFPESSDEMLSLVKNTHEFVETASSGNPLDFFPILRYLPNPALQRFKAFNQRFLWFLQKTVQEHYQDFDKNSVRDITGALFKHSKKGPRASGNLIPQEKIVNLVNDIFGAGFDTVTTAISWSLMYLVTKPEIQRKIQKELDTVIGRERRPRLSDRPQLPYLEAFILETFRHSSFLPFTIPHSTTRDTTLNGFYIPKKCCVFVNQWQVNHDPELWEDPSEFRPERFLTADGTAINKPLSEKMMLFGMGKRRCIGEVLAKWEIFLFLAILLQQLEFSVPPGVKVDLTPIYGLTMKHARCEHVQARLRFSIN
Km [1]: 15 µM | kcat [1]: 0.0833 s⁻¹ | kcat/Km [1]: 5500 M⁻¹ s⁻¹

B2: Catechol O-methyltransferase (Homo sapiens) (protein)
chain: MPEAPPLLLAAVLLGLVLLVVLLLLLRHWGWGLCLIGWNEFILQPIHNLLMGDTKEQRILNHVLQHAEPGNAQSVLEAIDTYCEQKEWAMNVGDKKGKIVDAVIQEHQPSVLLELGAYCGYSAVRMARLLSPGARLITIEINPDCAAITQRMVDFAGVKDKVTLVVGASQDIIPQLKKKYDVDTLDMVFLDHWKDRYLPDTLLLEECGLLRKGTVLLADNVICPGAPDFLAHVRGSSCFECTHYQSFLEYREVVDGLEKAIYKGPGSEAGP
Km [2]: 2.4 µM | Vmax [2]: 0.00059 µmol/min | Km [3]: 2.5 µM | Vmax [3]: 0.00071 µmol/min | Km [4]: 5.6 µM | Vmax [4]: 0.0013 µmol/min

B3: Catechol O-methyltransferase (Rattus norvegicus) (protein)
chain: MPLAAVSLGLLLLALLLLLRHLGWGLVTIFWFEYVLQPVHNLIMGDTKEQRILRYVQQNAKPGDPQSVLEAIDTYCTQKEWAMNVGDAKGQIMDAVIREYSPSLVLELGAYCGYSAVRMARLLQPGARLLTMEMNPDYAAITQQMLNFAGLQDKVTILNGASQDLIPQLKKKYDVDTLDMVFLDHWKDRYLPDTLLLEKCGLLRKGTVLLADNVIVPGTPDFLAYVRGSSSFECTHYSSYLEYMKVVDGLEKAIYQGPSSPDKS
Km [5]: 7.7 µM | Vmax [5]: 0.0032 µmol/min | Km [6]: 5.5 µM | Vmax [6]: 0.0024 µmol/min | Km [7]: 9.2 µM | Vmax [7]: 0.0033 µmol/min

B4: Cytochrome P450 2C19 (Homo sapiens) (protein)
chain: MDPFVVLVLCLSCLLLLSIWRQSSGRGKLPPGPTPLPVIGNILQIDIKDVSKSLTNLSKIYGPVFTLYFGLERMVVLHGYEVVKEALIDLGEEFSGRGHFPLAERANRGFGIVFSNGKRWKEIRRFSLMTLRNFGMGKRSIEDRVQEEARCLVEELRKTKASPCDPTFILGCAPCNVICSIIFQKRFDYKDQQFLNLMEKLNENIRIVSTPWIQICNNFPTIIDYFPGTHNKLLKNLAFMESDILEKVKEHQESMDINNPRDFIDCFLIKMEKEKQNQQSEFTIENLVITAADLLGAGTETTSTTLRYALLLLLKHPEVTAKVQEEIERVIGRNRSPCMQDRGHMPYTDAVVHEVQRYIDLIPTSLPHAVTCDVKFRNYLIPKGTTILTSLTSVLHDNKEFPNPEMFDPRHFLDEGGNFKKSNYFMPFSAGKRICVGEGLARMELFLFLTFILQNFNLKSLIDPKDLDTTPVVNGFASVPPFYQLCFIPV
Km [8]: 7.3 µM | kcat [8]: 0.25 s⁻¹ | Km [9]: 7.3 µM | kcat [9]: 0.25 s⁻¹ | Km [10]: 5.1 µM | kcat [10]: 0.233 s⁻¹

B5: Cytochrome P450 2C9 (Homo sapiens) (protein)
chain: MDSLVVLVLCLSCLLLLSLWRQSSGRGKLPPGPTPLPVIGNILQIGIKDISKSLTNLSKVYGPVFTLYFGLKPIVVLHGYEAVKEALIDLGEEFSGRGIFPLAERANRGFGIVFSNGKKWKEIRRFSLMTLRNFGMGKRSIEDRVQEEARCLVEELRKTKASPCDPTFILGCAPCNVICSIIFHKRFDYKDQQFLNLMEKLNENIKILSSPWIQICNNFSPIIDYFPGTHNKLLKNVAFMKSYILEKVKEHQESMDMNNPQDFIDCFLMKMEKEKHNQPSEFTIESLENTAVDLFGAGTETTSTTLRYALLLLLKHPEVTAKVQEEIERVIGRNRSPCMQDRSHMPYTDAVVHEVQRYIDLLPTSLPHAVTCDIKFRNYLIPKGTTILISLTSVLHDNKEFPNPEMFDPHHFLDEGGNFKKSKYFMPFSAGKRICVGEALAGMELFLFLTSILQNFNLKSLVDPKNLDTTPVVNGFASVPPFYQLCFIPV
Km [11]: 5.4 µM | kcat [11]: 0.0517 s⁻¹ | kcat/Km [11]: 9500 M⁻¹ s⁻¹
